{"source": "patent US9540654B2", "about": "“Synthetic brassica-derived chloroplast transit peptides” (Dow AgroSciences LLC, priority 2012, dated 2017)", "molecules": {"B1": {"name": "TraP12: chimeric chloroplast transit peptide SEQ ID NO:6, N-terminus from Brassica napus, C-terminus from Arabidopsis thaliana EPSPS (protein)", "chain": "MAQSSRICHGVQNPCVIISNLSKSNQNKSPFSVSLKTHQHPRAYPISSSWGLKKSGMTLIGSELRPLKVMSSVS", "modifications": "TraP12 chloroplast transit peptide"}}, "key": {"[1]": {"system": "chloroplasts of the tobacco leaf tissue", "experiment": "Tobacco transient assay, confocal microscopy of TraP-YFP", "type": "cell-based, Nicotiana benthamiana", "conditions": "Agrobacterium-infiltrated tobacco leaves", "description": "The Trap12 and TraP13 chimeric chloroplast transit peptide sequences were initially tested via a transient in planta assay. Polynucleotide sequences which encode the Trap12 (SEQ ID NO:5) and TraP13 (SEQ ID NO:7) chimeric chloroplast transit peptide sequences were synthesized. A linker sequence (SEQ ID NO:10) was incorporated between the TraP sequence and the yfp coding sequence. The resulting constructs contained two plant transcription units (PTU). The first PTU was comprised of the Arabidopsis thaliana Ubiquitin 10 promoter (AtUbi10 promoter; Callis, et al., (1990) J. Biol. Chem., 265: 12486-12493), Trap yellow fluorescent protein fusion gene (TraP-YFP; US Patent App. 2007/0298412), and Agrobacterium tumefaciens ORF 23 3′ untranslated region (AtuORF23 3′UTR; U.S. Pat. No. 5,428,147). […]\nAgrobacterium-infiltrated tobacco leaves were severed from the plant, and placed into a petri-dish with water to prevent dehydration. The infiltrated tobacco leaves were observed under blue light excitation with long-pass filter glasses held in place using a Dark Reader Hand Lamp™ (Clare Chemical Research Co.; Dolores, Colo.) to identify undamaged areas of the leaf that were successfully expressing the YFP reporter proteins. […]"}, "[2]": {"system": "Cry1Ac, Cry1Ca, Cry1F proteins", "experiment": "Protein expression of stacked TraP12 cry1Ac, cry1Ca, cry1F in Arabidopsis (Western blotting, ELISA)", "design": "species or system Arabidopsis thaliana", "description": "The TraP12 chimeric transit peptide was fused to the 5′ end of cry1Ac, cry1Ca, and cry1F gene sequences which were stacked in multi PTU plasmid constructs to determine whether the TraP12 chimeric transit peptide enhanced or reduced expression of the proteins within Arabidopsis.\nThe constructs listed in Table 35 were assembled using art recognized methods. The constructs were subsequently transformed into Arabidopsis thaliana using the Agrobacterium mediated transformation protocol previously described. Transgenic Arabidopsis plants were obtained and protein expression was determined via Western blotting and ELISA assays."}, "[3]": {"system": "chloroplasts of the maize protoplast", "experiment": "Maize protoplast transient assay, microscopy of TraP12-YFP", "type": "cell-based, Zea mays var. B104", "conditions": "maize protoplasts, 12 hours after transfection", "description": "The Trap12 chimeric chloroplast transit peptide-encoding polynucleotide sequence (SEQ ID NO:5) and the linker sequence (SEQ ID NO:10) were cloned upstream of the yellow fluorescent protein gene and incorporated into construct for testing via the maize protoplast transient in planta assay. The resulting construct contained the following plant transcription unit (PTU). The first PTU was comprised of the Zea mays Ubiquitin 1 promoter (ZmUbi1 promoter; Christensen, A., Sharrock R., and Quail P., (1992) Maize polyubiquitin genes: structure, thermal perturbation of expression and transcript splicing, and promoter activity following transfer to protoplasts by electroporation, Plant Molecular Biology, 18:675-689), Trap yellow fluorescent protein fusion gene (TraP12-YFP; US Patent App. 2007/0298412), and Zea mays Peroxidase 5 3′ untranslated region (ZmPer5 3′UTR; U.S. Pat. No. 6,384,207). The construct was confirmed via restriction enzyme digestion and sequencing.\nSeed of Zea mays var. B104 were surface sterilized by shaking vigorously in 50% Clorox (3% sodium hypochlorite), containing 2-3 drops of Tween 20, for about 20 minutes. […]\nTransfection of 100 to 500 μl of protoplasts (1-5×10^5) was completed by adding the protoplasts to a 2 ml microfuge tube containing about 40 μg of plasmid DNA (pDAB106597), at room temperature. […] Fluorescence of YFP was viewed by microscopy after 12 hours of incubation. […]"}}}
{"molecule": "B1", "values": [{"measurement": "localization of YFP fluorescence signal (microscopy imaging)", "setting": "[1]", "result": "accumulated within the chloroplasts"}, {"measurement": "translocation of expressed proteins (Western blots)", "setting": "[2]", "result": "directed the expressed proteins into the chloroplasts"}, {"measurement": "localization of YFP fluorescent protein (microscopy imaging)", "setting": "[3]", "result": "accumulated within the chloroplasts"}]}
